Results on 32 sequences are retold here after the supplement of paper PMC9170038.

In this data set the test system is MS2 coat protein. Kind of data set: apparent KD of MS2 coat protein; designed switch direction (-1 OFF switch, 1 ON switch): -1; higher = weaker reporter binding. The method in brief: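 Designed RNA switches sharing common flanks were transcribed on Illumina chips by stalled E. coli RNA polymerase. They were titrated with SNAP-549-labelled MS2 coat protein, from 0.7 or 1.5 nM doubling to 3 µM, in Tris-HCl pH 7.5 buffer with KCl, MgCl2, BSA, DTT, tRNA and Tween-20. Titrations ran without input, with 200 uM small-molecule ligand, or with an oligonucleotide input. The apparent KD of each design is the median over its clusters, after curve-fitting of normalised cluster fluorescence.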

The mark [1] stands for this setting: Eterna round: R95, input ligand: FMN 200 uM.
Setting [2] is: Eterna round: R95, input ligand: microRNA oligo, concentration not stated.
Where [3] appears, read: Eterna round: R95, input ligand: none.
The mark [4] stands for this setting: input ligand: microRNA oligo, concentration not stated.

In the case of “GAGUGACAUGAGGAUCACCCAUGUAAGGAUAUACGGUUGGUAGAGAGAGGGCGAAAGGGUAGAAGGUACGAAGG [JR_Exclu1_Sub054] (puzzle: Exclusion 1)”, the “apparent KD of MS2 coat protein” value under setting [1] was 64.6 nM, the “apparent KD of MS2 coat protein” value under setting [2] stood at 76 nM and the “apparent KD of MS2 coat protein” value under setting [3] came to 95.2 nM.

For the sequence “GUUAACGAUGAGGAUAUAUGAUAUCAAAGCAUCAUAGAAGGCAUCACAUGAGGAUCACCCAUGUGAUCUUCUUG [Mat - Exclusion 6 - JL Mod - D27] (Eterna round: R97, puzzle: Exclusion 6)”, the “apparent KD of MS2 coat protein” value by setting is: (input ligand: FMN 200 uM) 120 nM; (input ligand: none) 29.4 nM.

For “GUUGCGUUUGUGAGGAUAUGCUGGUCCUUGGUUCGGCAGAAGGCACAUGAGGAUCACCCAUGUGGUGUUGUUCC [salish99_Bmod_ex4_052] (puzzle: Brourd's mod of Exclusion 4)”, under setting [2], the “apparent KD of MS2 coat protein” value was determined as 90.5 nM.

Consider “UACACGGGAGGAUAUACGUAGAUGCAGGUUCGUGUGGUGCUACAUGAGGAUCACCCAUGUAGAAGGCCCAACGU [Mod 4 R3 JL-ex2-2.29] (Eterna round: R97, puzzle: Exclusion 2)”, for which the “apparent KD of MS2 coat protein” value was determined as 26.3 nM (input ligand: FMN 200 uM) and 23.4 nM (input ligand: none).

For “GGAUCUACUGAGGAUAUUAUAUCACCCGACUGAUAAGAAGGCAGUACAUGAGGAUCACCCAUGUGGGUAGCCAU [Polaris8] (Eterna round: R97, puzzle: Exclusion 6)”, the “apparent KD of MS2 coat protein” value was determined as 64.3 nM (input ligand: FMN 200 uM) and 34.8 nM (input ligand: none).

“CGUUCGCGAGGAUAUGCAUUCGAGUCCACUACGUGUCUGGGACUUGAGGAUCACCCAAGUAGAAGGCGCCUCCA [salish99_ex2_r4_650] (Eterna round: R97, puzzle: Exclusion 2)”: the “apparent KD of MS2 coat protein” value is 78.5 nM (input ligand: FMN 200 uM) and 130 nM (input ligand: none).

Turning to “GUGUUGUCAGGAUAUCUUACAUAACAAUCGUUGUUACCAUUGGAGAAGGGACAUGAGGAUCACCCAUGUUAACC [tap-tap-tappy46] (Eterna round: R97, puzzle: Exclusion 4)”, the “apparent KD of MS2 coat protein” value (input ligand: FMN 200 uM) was 18.9 nM and the “apparent KD of MS2 coat protein” value (input ligand: none) came to 19.6 nM.

As for “GUAAUAGUGGUUAGGAUAUGCGAUCGAAAAUAGGUGCAGAAGGAACAUGAGGAUCACCCAUGUGCCUCCUCAAU [Eternabot (L1) Solution 6] (Eterna round: R97, puzzle: Brourd's mod of Exclusion 4)”, the “apparent KD of MS2 coat protein” value (input ligand: FMN 200 uM) turned out to be 24.2 nM and the “apparent KD of MS2 coat protein” value (input ligand: none) is 15.6 nM.

Turning to “CCUCCGGCAGGAUAUGCAGGGAGGAUGUUGUGUUAUUGGUAACAUGAGGAUCACCCAUGUAGAAGGGCCAAUAC [Eternabot (L2) Solution 42] (Eterna round: R97, puzzle: Exclusion 2)”, the “apparent KD of MS2 coat protein” value (input ligand: FMN 200 uM) came to 17.9 nM and the “apparent KD of MS2 coat protein” value (input ligand: none) worked out at 15 nM.

On to “GGCCUUCCGCGAGCUUUUUACAUGAGGAUCACCCAUGUGGUUUUUAGUCUUAUCCGGCCGGCCGUGUGGCCGGCCGG [-32.9, -53.8, A 12%] (Eterna round: R97, puzzle: Sensor, turn-off variant 1)”, for which the “apparent KD of MS2 coat protein” value reads like this: (input ligand: FMN 200 uM) 26.1 nM; (input ligand: none) 30.4 nM.

“GCCGGGCGAGGAUAUACAUGGCGGGCGAAAGCCCGCGAUCUACAUGAGGAUCACCCAUGUAGAAGGCGCCCGGC [2nd Free energy optimized design] (Eterna round: R97, puzzle: Exclusion 2)”: the “apparent KD of MS2 coat protein” value reads like this: (input ligand: FMN 200 uM) 567 nM; (input ligand: none) 49.3 nM.

Turning to “GUGAAACAUGAGGAUCACCCAUGUGAGGAUAUGAUUUAGUAAUGAUGAAAGUAAAUAUUCAGAAGGCACAAUGG [Mat - Mod of JL D71] (puzzle: Exclusion 1)”, the “apparent KD of MS2 coat protein” value under setting [1] was 74.2 nM, the “apparent KD of MS2 coat protein” value under setting [2] was determined as 92.7 nM and the “apparent KD of MS2 coat protein” value under setting [3] was 90.2 nM.

Consider “AAGUCGGCAGGAUAUACAUGAGGAUCACCCAUGUAAAUUUUUCGUUUAACUUGAAUGUGUAGAAGGGCCAUAAA [Ex3 #66] (Eterna round: R97, puzzle: Exclusion 3)”, for which the “apparent KD of MS2 coat protein” value was 24.3 nM (input ligand: FMN 200 uM) and 24.5 nM (input ligand: none).

In the case of “CACCGUUAGUGAGGAUAUCUUACAUGAGGAUCACCCAUGUAAUAAAUGAGAAUUUCGGAUGUAUUAGAGAAGGCACAAAUCGGC [Ostricism 57 - Jieux - Exclusion NG 2] (Eterna round: R96, puzzle: Exclusion NG 2)”, the “apparent KD of MS2 coat protein” value under setting [4] came to 17.7 nM.

Take “AAGCCCUGAGGAUAUCCUUACUCGCACAUGAGGAUCACCCAUGUCCUCCUCCGGGCUUCGGGAGAAGGCAGGUCUC [Megrez-7.7] (Eterna round: R97, puzzle: Exclusion 5)”: the “apparent KD of MS2 coat protein” value was found to be 40.1 nM (input ligand: FMN 200 uM) and 56.6 nM (input ligand: none).

On to “UUUGUUGUUGUGAGGAUAUCGUAGUUAUUUUGUAACGAGAAGGCACAUGAGGAUCACCCAUGUUUUUUGAUGGU [JR_BMOE4_Sub063] (puzzle: Brourd's mod of Exclusion 4)”, for which, under setting [2], the “apparent KD of MS2 coat protein” value was determined as 24.9 nM.

Take “AGAGUGAGAGGAUAUUGGAUUCCUAACAUGAGGAUCACCCAUGUAGUACGGUGCUACUGACAAGAAGGCUCACUCU [etrenacac ex5r4 #7] (Eterna round: R97, puzzle: Exclusion 5)”: the “apparent KD of MS2 coat protein” value (input ligand: FMN 200 uM) amounted to 54.5 nM and the “apparent KD of MS2 coat protein” value (input ligand: none) worked out at 76.1 nM.

For the sequence “GCACGAAGUGUAGGAUAUCUGUGCGAUUAGCUCAGAGAAGGACACAUGAGGAUCACCCAUGUUUUCCGCGGAAGCAAUACGUGC [Eli exng1 - 058] (Eterna round: R96, puzzle: Exclusion NG 1)”, the “apparent KD of MS2 coat protein” value (input ligand: FMN 200 uM) was determined as 26.5 nM, the “apparent KD of MS2 coat protein” value under setting [4] is 13.2 nM and the “apparent KD of MS2 coat protein” value (input ligand: none) is 17.9 nM.

As to “CAGAGCAGACGGAGAUCCAACAUGAGGAUCACCCAUGUCUCAAAAGCUUUUUGCUCGUCUUAUCCUCCUCUGUUCAC [Esquitian 3] (Eterna round: R97, puzzle: Sensor, turn-off variant 1)”, the “apparent KD of MS2 coat protein” value by setting is: (input ligand: FMN 200 uM) 26 nM; (input ligand: none) 30.4 nM.

With “AGCUUUUUGUUCGUCUUAUACAUGAGGAUCACCCAUGUAUUGGACCGCAUCGAUAGAUGUAGACCAAGAAGCAUGGG [Omdei Mir OFFv1 C5] (Eterna round: R97, puzzle: Sensor, turn-off variant 1)”, the “apparent KD of MS2 coat protein” value reads like this: (input ligand: FMN 200 uM) 50.6 nM; (input ligand: none) 48.2 nM.

On to “UGCGGUUGAGGAUAUACGUAGAACUAGGUUCAUGUAAAACUACAUGAGGAUCACCCAUGUAGAAGGCAAUCGCU [Mat - Exclusion 2 - JL Mod - D41] (Eterna round: R97, puzzle: Exclusion 2)”, for which the “apparent KD of MS2 coat protein” value is, setting by setting: (input ligand: FMN 200 uM) 23.9 nM; (input ligand: none) 20.3 nM.

As to “UUUUCACAUGAGGAUCACCCAUGUGAGGAUAUGGAUUCGCUGGCCGUAGCCAGUGGAUCCAGAAGGCGCAUGAU [JL-ex1-4.06] (Eterna round: R97, puzzle: Exclusion 1)”, the “apparent KD of MS2 coat protein” value runs as follows: (input ligand: FMN 200 uM) 36 nM; (input ligand: none) 32.8 nM.

“UUAAUUAAUGUCAGGAUAUCUAGAGCUUCGGCUCUAGAGAAGGGACAUGAGGAUCACCCAUGUCACUCUUAAUU [BmEx4/3-C1] (Eterna round: R97, puzzle: Brourd's mod of Exclusion 4)”: the “apparent KD of MS2 coat protein” value (input ligand: FMN 200 uM) came to 21.1 nM and the “apparent KD of MS2 coat protein” value (input ligand: none) came to 15.1 nM.

Turning to “UCCUUGUUGGAGGAUAUGCAUAGCAUCACGCCUGUAGAAGGCCAAACAUGAGGAUCACCCAUGUGCAUGGGAUG [Eternabot (L1) Solution 77] (Eterna round: R97, puzzle: Exclusion 6)”, the “apparent KD of MS2 coat protein” value (input ligand: FMN 200 uM) came out at 244 nM and the “apparent KD of MS2 coat protein” value (input ligand: none) was found to be 216 nM.

As to “GCCUCACUUGAGGAUCACCCAAGUCAGGAUAUUCACUGAACUGCGUAACAGUUCGGCCGAAGAAGGGAUUCGGG [Uscedian] (Eterna round: R97, puzzle: Exclusion 1)”, the “apparent KD of MS2 coat protein” value came to 35.6 nM (input ligand: FMN 200 uM) and 96.5 nM (input ligand: none).

Consider “UGUUGUUCAGGAUAUGGUGUGUUUUACAUGAGGAUCACCCAUGUGGGUCCUGGUUUGGCGUCAGAAGGGAAUGUUG [salish99_ex5_r4_117] (Eterna round: R97, puzzle: Exclusion 5)”, for which the “apparent KD of MS2 coat protein” value reads like this: (input ligand: FMN 200 uM) 788 nM; (input ligand: none) 1040 nM.

Regarding “AAUUUGCAAGCGAGAUCCCACAUGAGGAUCACCCAUGUGCUCGUCUUAUAAGGUACUGUGACAAUAGUCACGGUACC [Mat - Sensor, turn-off var - Eli Mod - D94] (Eterna round: R97, puzzle: Sensor, turn-off variant 1)”, the “apparent KD of MS2 coat protein” value runs as follows: (input ligand: FMN 200 uM) 16.7 nM; (input ligand: none) 20.8 nM.

For “AAAACUGAAGGAUAUGCCAGGGUGAGAGCUGGUGACGUUUAACAUGAGGAUCACCCAUGUAGAAGGUCAAAACA [Usate] (puzzle: Exclusion 2)”, under setting [2], the “apparent KD of MS2 coat protein” value was determined as 12.6 nM.

Consider “CCAGGCGUCUUGGCUCGUCUUAUUUGGAGAGGAUUGAUAACAUGAGGAUCACCCAUGUGUGUGGGAGCGUUGCAGUG [JR_SV3TOV2_Sub019] (puzzle: Sensor v3, turn-off variant 2)”, for which the “apparent KD of MS2 coat protein” value under setting [1] is 75.5 nM, the “apparent KD of MS2 coat protein” value under setting [2] is 137 nM and the “apparent KD of MS2 coat protein” value under setting [3] came out at 102 nM.

Turning to “AAGUACCGUCACGAUAGUGAUGGUACAACAAGCAGGUGAACAUGAGGAUCACCCAUGUCCUCAAUUGCUCGUCUUAU [Sensor 3 - 73] (puzzle: Sensor v3, turn-off variant 2)”, the “apparent KD of MS2 coat protein” value under setting [1] worked out at 156 nM, the “apparent KD of MS2 coat protein” value under setting [2] turned out to be 48.3 nM and the “apparent KD of MS2 coat protein” value under setting [3] was found to be 159 nM.

For the sequence “GUCUCGUGAGGAUAUGACGCUACUUUUUUGUUUUAGUAGAGUCAGAAGGCACAUGAGGAUCACCCAUGUGAUUC [Ex4 - 3 - 4] (puzzle: Exclusion 4)”, the “apparent KD of MS2 coat protein” value under setting [2] came out at 56 nM.

With “AUGAGACAUGAGGAUCACCCAUGUGAGGAUAUGUAUGGAUGAAGGAAAGAAUGAGAGAACAGAAGGCACGAAGA [JR_Exclu1_Sub064] (puzzle: Exclusion 1)”, the “apparent KD of MS2 coat protein” value runs as follows: under setting [1], 109 nM; under setting [2], 98.9 nM; under setting [3], 138 nM.
